Reference: publication PMC9775641, “Conformational Dynamics of the Receptor-Binding Domain of the SARS-CoV-2 Spike Protein” (Biomedicines, 2022)

Molecular target: T1, Wild-type (WT) receptor-binding domain (RBD) of SARS-CoV-2 spike protein, 330-528 aa fragment (SARS-CoV-2, wild type (Wuhan-1), UniProt P0DTC2)
T1 construct: also called WT RBD; wild-type RBD
Assay: SPR
Settings: both partners purified

B1: SARS-CoV-2 neutralizing antibody P4A1 (full-length IgG1) (antibody, V domains shown)
VH: EVQLVESGGGLIQPGGSLRLSCAASGFIVSSNYMSWVRQAPGKGLEWVSIIYSGGSTFYADSVKGRFTISRDNSKNTLYLQMNSLRVEDTAVYYCARDLQELGSLDYWGQGTLVTVSS
VL: DIQMTQSPSSVSASVGDRVTITCRASQGISSWLAWYQQKPGKAPKLLIYAASSLQSGVPSRFSGSGSGTDFTLTISSLQPEDFATYYCQEANSFPYTFGQGTKLEIK
notes: also called P4AI; Ab
kon: 770000 M⁻¹ s⁻¹
